Reference: the DeepSol protein solubility set

Assay: soluble on expression in E. coli; label from the status in PepcDB or PDB records

Sequence	soluble on expression in E. coli
MRRIGAITALSLPVLLSLLYSCGTGGSASKEEILSKKEHNPEPNIPLECYTDTGVVKLGKAIANPCYVCHTKALTPYENEVDDFDLQLVYDFPEEIKEMGNPWLNAIKPELTIGSVPMPSDEEIKTWIRQDNWSKAYAEKGKGELVYFPDIPPIYKYENGSYELINVDKEGFVRDPETGEYTGWRVFKWKPFPGFFPTNGRIDSTFIRLPEKFRKKNGEFDLNLYKKNLAILECAMKGVAPGETCSGTEVGDFIMPFRYEGDASDVEVVVYQYPPGTEFAHPLYYLDPENTLSFKSLRIKEMRYMKKLAYADTRTGTGEEEEEEGTFFWDKGRFFNDSGYWEMRAFIEDKNGYLRPQSPEESKFCIACHGGIGGTVDGTFTLWRKIPGEEGWKEQDYKNIKDYRYKAITCENLDSLEMGEEVKKALEAYCSKVGESPGEYTVYFALTAGGDHFRSNYEILQDISVDGKVDLELLYNPEKIKFIDNSGFIKPELFFPEPERAYGIDKQYYRIVKAQAFIYGRDVFEKAFGISSGGNSLEELDNLESTGVKESGIWNFVKNFLSSE	not soluble
MDMAKDKGFFKKAKTGKNKSSATPYAEECAIQIPSEIDNEQMHRMPAGGEEDQYLRIKHMSALIKKYGNLPIITTRETRLPDYWLELFTAIDEGDTPKAHALFHLLPQEDIILRALRAVHSEDYLYQLIKYCIQAKHFGFKQLNADLVVTPKTFEILIKDCATTLFNPAKTHFSFGLPSHHAYTQMGSGFCLINKTAMLIKQAELSSVQPPRFVIIGTDVNRDNGLCDILRHSFSHLSICHIDVFDSRVYPQQDFSYINNEFNSEGVDVGKNIHVWHHNDLSYYAVDLSLTSRKSVGVHPALLFALEQFKASIREAKVKGQKIALYLPTGWDSHEDETAYCGKFVKGRMLGKTAAHQFRFNDGDLSYFYESIFTLYNENKDCIDTIYWGLEGGYDRTMYKRELTLLLQVIEKQLLPQDSNSHNMSCLEHHHHHH	not soluble
MEVKLPELGDNVTQATVVGVLVKEGDRVEPGQPLLELETDKAVVEVPAEAGGVVKRVLVKVGDEVRPGQPFLELAEAEGGAEAPPLKAEERPEAPAPKAEEAPRPAPKEAPPAPQEAPSERRLIPAAPSIRRLARELGVDLTRLRGTGLAGRITEEDVRRAAGLGEAAPAALPAAPAPRLPDFTKWGPVRREPMSGVRKATVRSMSQAWAQVPMVTHFDEADVTELEALRKQYAKKAEEKGFRLTLTAFLLKALALTLKAFPKFNASLDVEAQEIVYKDYIHIGVAVDTPHGLLVPVIRDVDRKGVLRLAEELQEISQRARERKLSPEEMQGATFSLSNLGGIGGTGFTPIVNWPEVAILGVSRSQMKPLWDPGKEAFVPRLVMPFSLTYDHRLIDGADAARFCRHLAGILEDPLGLALA	soluble
MPIIASESSHESIPQDFMDAVESMHKAQLRPEISLGTIRPPQRLAPFSHAVGLEVSGTLSDDSQGDAFGRLILLHDPTSDESWDGSMRLVAYIQADMDASVANDPLLPDVAWQWLTEALDKTHADHTNLGGTVTATASVRFGEIGGPPRAYQVEMRASWTATAIDLAPHVSAFAQVLANVAGLSPEGTTSISR	not soluble
MDEIDLRILKILQYNAKYSLDEIAREIRIPKSTLSYRIKKLEKDGVIKGYYAYINPASLNLDYIVITSVKAKYGKNYHVELGNKLAQIPGVWGVYFVLGDNDFIVMARYKTREEFMEKFLERVMSIPEVERASTQVVVKIIKESPNIVIF	soluble
MGSDKIHHHHHHMHIVDVTMFYAPASGGVRTYLQAKREILSQVPGLRTSLLVPGAERDSLGNHHTLPALRLPLGQGYRFPLRARLWRDALGALAPDIIEAGDPYVTAWAALDASQRLGVPVVGFYHSDLPRLMGDRFGRQVGRRLERYVVNLYRRFDSVLAPCQAMADRLRDWGIDQVRVQPLGVDLQRFHPSCKDPALREELGLAPETRLLVFIGRNSREKNIDILLATMKRLGNGYHLLLIGPGMPRQVPANVTSFDRCCGIYEVARVLASSDAMLHAGTRETFGLIAQEAMASGIPVVGAKAGALKENVPLGAGILCRPLDPEAMADACQSLFRNDVVASGRYARRYVELHFSWESAMKNLLEHYRQLCASSELHVIPQKA	not soluble
MLYKRKNIKFKNFVDLHKNLSLSKLFDFYSVFEGFEKLNILNFEDDVFTNIERILLDDYLKIKSYFALDETSSYALTLLAKNNRKRFSINRKIQHFKALSTLKYLLETGIIKLEYSKEAKKIKDKRQKIKKELRSYVVQDKIIFSNHFTRFFFYFLKPNEKLILQNRYKEVLECIKEKFELYQSFCFEQLSRELLEKKFNINGVQSYWDKNLELDLYYQDENLCFVGEVKFKNKKICKNILNLLKSKAKSLNLAPNYYIIISKNGFSKEIDKICEQNLLLLDLNDFKILLEELEHHHHHH	not soluble
MGSDKIHHHHHHMTTFYSLKVARVEPETRDAVTITFAIPQALQAEYCFRPGQHLTLKARLGGEELRRCYSICRSRTPGEISVAVKAIDGGRFSRYAQQDIQQGMELEVMVPQGHFGYQPQAERQGEYLAIAAGSGITPMMAIISATLATEPQSRFTLIYGNRSSHSMMFRQALADLKDRYPQRLQVIHLFSQESMDSDLLQGRIDGDKLRQLADHLLDFSRFDEAFICGPAAMMDEAEATLRELGVAEKSIHLERFNTPGGNVKRVAGVQAEGRTVTIRQDGRDRLIALSAEDDSILDAALRQGADLPFACKGGVCATCKCKVLRGEVAMAANYSLEADELAAGYVLSCQSLPTSGDVVVDFDARGMA	not soluble
NKDMSFVIRGNFTYSKNKIDNWEQIEQKYAYQNFSGWPYGIQRGYIALGLFRDEADINNSPIQTFGNYEAGDIKYKDVNGDGRIDIDDQVPLSYDNYPRLMYGFGGEFRYKNLTFNILFKGIGKKDFFYTSEDSGFGYYPFLYGETGNVLSIVANSSNRWIPASYSGDPSTENPNARFPRLSYGKNSNNTQKSTFWKANGQYLRLQEISVGYNLKLKAFSKIGVSSIDLQLVGQDLYVWDKIGGLWDPEQTTKNGRAYPIPATYSLQMYINF	not soluble
MERYNTMSGKKTESSDNIVLYPGLVKRLIEKGMEALKEKDAKKALTMFEQAEQYDAEPSQILFGKALCYVELGKLDDAVLLTDQMLRNDIGNYYDILQIHLSLLVQLGRYDEVVEMLDVVLAEDRLPAKHAESFYQLLHFSRQMVEDSPTYIKEPLSEELDLKETYDDINERDSLEQWHFLQQMRKHNNPADIRTLLSFVESESNDPALRSYALHMLTMHKVEKRVRIRKFDQEAEVIPVELNADEQQRFGNAVVEQLEARLAVENPSLFKMAEQLWWQFLYALYPFTPKPEQKDLWAGAVHVAVHESNGLPFDEEEIAGMYNCRVQQMLEKGEEIHFVETETFQGISGHSFRMAGDPLEHHHHHH	soluble
MGSDKIHHHHHHLTIRVLAHLAGAHLDHAIALGLRSGLGDDWLRIGGLKLFADGSLGSESAHMLLPYEGRDHTGIAVIPPAEMQEIVTRANAHGISVVVHAIGDAANRSVLDAIAAARATAASLALPNRIEHCQILDPHDIPRFAELNVIASMQPIHCTADMVMAERLWGKRCATSYAWRSLRAAGATLAFGSDAPVETMDPWAGIHAAVTRQTTDGTPDGGWYPEQRLTLTEALEAYCIGPTIAGADAERRGRLIPGMFADLAVLNGDPFQMPVTHLHTLHAELTMVGGKIVFNRTSR	not soluble
MGSDKIHHHHHHADPFASITHLVDSAMVNKTDSIDREKTSDEPKPIEADESFDDFIYNFASDDALQRQRVVFPLPYYNGERASKIDRKYWKHDDLFAKQSYYTLLFDREEDMDLVGDTSLTSVQVEWIFVKKRMVKKYYFERIKGAWMLEAINLRPIEENENEDFVEFFGHFATDSIFQSRRIRQPLVFVTTDPDDDFSILETTLDLNQWFAFKPALPADKLSNINYGQQNDDNASHKILALKGIGNGFSNILYFQRKDSGWELYKFEDTSI	not soluble
MSLSNFYKLLKEKFPRKEDIVTEMINLEAICQLPKGTEYFISDLHGEYDAVDYLLRTGAGSIRAKLLDCFDWQKIVAVDLDDFCILLYYPKEKLAFDKMNLSASAYKTKLWEMIPLQIQVLKYFSSKYTKSKVRKQLSGKFAYIIEELLAEIDRNPEKKSYFDTIIEKLFELDQVEDLIIVLSQTIQVLIIDHLHVVGDIYDRGRYPDRILNRLMAFPNLDIQWGNHDVTWMGAASGSYLCMVNVIRIAARYNNITLIEDRYGINLRRLVDYSRRYYEPLPSFVPILDGEEMTHPDELDLLNMIQQATAILQFKLEAQLIDRRPEFQMHNRQLINQVNYKDLSISIKEVVHQLKDFNSRCIDSKNPSRLTSEEEELLQQLMIAFQTSESLKKHIDFLFEKGSMYLTYNDNLLFHGCIPMHSNGDFKSFKIAGKTYGGRDLLDLFESQIRLAYARPEKHDDLATDIIWYLWCGENSSLFGKNAMTTFERYYVSDKVTHQERKNPYFKLRDKDDICTALLQEFDLPKFGHIVNGHTPVKEKNGEQPIKANGKMLVIDGGFAKGYQKNTGLAGYTLIYNSYGIQLISHLPFTSIEEVLSGTNYIIDTKRLVEEAKDRILVKDTTIGQKLTKEIKDLDHLYRHFQEYDEGHHHHHH	soluble
MSLAYKGYLIDLDGTIYKGKSRIPAGERFIERLQEKGIPYMLVTNNTTRTPESVQEMLRGFNVETPLETIYTATMATVDYMNDMNRGKTAYVIGEEGLKKAIADAGYVEDTKNPAYVVVGLDWNVTYDKLATATLAIQNGALFIGTNPDLNIPTERGLLPGAGSLNALLEAATRIKPVFIGKPNAIIMNKALEILNIPRNQAVMVGDNYLTDIMAGINNDIDTLLVTTGFTTVEEVPDLPIQPSYVLASLDEWTFNEGHHHHHH	soluble
MYTLIIPAAGQGKRMGAGKNKLFLLINEVPIIVHTLRAFEKDKACKNIIMAINEEERPYFEELMQKYPVEKPVQFIQGGAERQDSVYNAIQHTTDVEYVLVHDGARPFVTNKVIQDVLTAAEKYGASICAVPVKDTVKKVEQGVVVETVERSQLKAVQTPQGFSVSLLLEAHRSAKQSCFLGTDDASLVERIGKQVGVVEGSYYNIKVTTPEDLLIAESFLHVQKK	not soluble
MGSDKIHHHHHHMQIYASLLLILKLERKLCIFSGKVMELYEMYYFAFNKSSEPMLFADPNTGRIFDVNQAFLALLGYAKDEVMVKTTFDLGLLPEEDSQPRQPLWVKTKNGSLKSGMVSATDLVHKEKMMRLMVFQEQSENGNFTLEEMLTQTISLISKISEFRDPYTSGHQKRTQKLACAIASEMKLSGEAIHHVSMAAAIHDVGKIYISSDILNKPGKLTQLEYQMLQTHVEVGYEIIKDFQLPWQIPEIISQHHERLDGSGYPKGLTASQIFLESKILAVADVVDAMNSHRPYRPALGIEAALEEICNYKGEKYDSEVVEHCVRLFKEKQAMPNRFKI	not soluble
SKKLLFQFDTDATPSVFDVVVGYDGGADHITGYGNVTPDNVGAYVDGTIYTRGGKEKQSTAIFVGGGDMAAGERVFEAVKKRFFGPFRVSCMLDSNGSNTTAAAGVALVVKAAGGSVKGKKAVVLAGTGPVGMRSAALLAGEGAEVVLCGRKLDKAQAAADSVNKRFKVNVTAAETADDASRAEAVKGAHFVFTAGAIGLELLPQAAWQNESSIEIVADYNAQPPLGIGGIDATDKGKEYGGKRAFGALGIGGLKLKLHRACIAKLFESSEGVFDAEEIYKLAKEMA	soluble
MVGQIAKEMGLRAYIVGGVVRDILLGKEVWDVDFVVEGNAIELAKELARRHGVNVHPFPEFGTAHLKIGKLKLEFATARRETYPRPGAYPKVEPASLKEDLIRRDFTINAMAISVNLEDYGTLIDYFGGLRDLKDKVIRVLHPVSFIEDPVRILRALRFAGRLNFKLSRSTEKLLKQAVNLGLLKEAPRGRLINEIKLALREDRFLEILELYRKYRVLEEIIEGFQWNEKVLQKLYALRKVVDWHALEFSEERIDYGWLYLLILISNLDYERGKHFLEEMSAPSWVRETYKFMKFKLGSLKEELKKAKENYEVYRLLKPLHTSVLLLLMLEEELKEKIKLYLEKLRKVKLPKEKIEELKKQGLKGKELGERIEELKREIMNKIKLAAALE	soluble
